This data set deals with the molecule itself. Briefly: SEC; 63.8 uM NS or gNS in 10 mM Tris-HCl pH 8.0, 50 mM KCl, incubated at 45 °C; aliquots at different times run on a Superdex 200 Increase 10/300 GL column; heat-induced polymerisation.

B1: bacterially expressed human neuroserpin (non-glycosylated) (natural protein, UniProt Q99574 17-410, looked up)
chain: TGATFPEEAIADLSVNMYNRLRATGEDENILFSPLSIALAMGMMELGAQGSTQKEIRHSMGYDSLKNGEEFSFLKEFSNMVTAKESQYVMKIANSLFVQNGFHVNEEFLQMMKKYFNAAVNHVDFSQNVAVANYINKWVENNTNNLVKDLVSPRDFDAATYLALINAVYFKGNWKSQFRPENTRTFSFTKDDESEVQIPMMYQQGEFYYGEFSDGSNEAGGIYQVLEIPYEGDEISMMLVLSRQEVPLATLEPLVKAQLVEEWANSVKKQKVEVYLPRFTVEQEIDLKDVLKALGITEIFIKDANLTGLSDNKEIFLSKAIHKSFLEVNEEGSEAAAVSGMIAISRMAVLYPQVIVDHPFFFLIRNRRTGTILFMGRVMHPETMNTSGHDFEEL
notes: human neuroserpin (NS), wild type, from the pQE81L plasmid carrying the human NS gene; theoretical mass of the construct 46,271 Da; Samples were a mix of native NS and NS cleaved at Arg362; also called NS; bacterially purified NS; source: E. coli BL21 Rosetta (DE3) pLysS, purified (HiTrap Chelating HP, Superdex200 gel filtration)
In the case of B1, the binding result is “binds”.

Values taken from paper PMC7247563, “Glycosylation Tunes Neuroserpin Physiological and Pathological Properties” (International Journal of Molecular Sciences, 2020).
